According to US20260275312, “CRISPR NUCLEASE POLYPEPTIDES AND GENE EDITING SYSTEMS COMPRISING SUCH” (ARBOR BIOTECHNOLOGIES, INC., published 2026):

Legend:
[1] = target: T1, Nuclease S H280R/T72R/I845R (synthetic construct, H280R,T72R,I845R); assay: cell_activity; HEK293T; PAM AACC; details: tags: N-term SV40 NLS, XTEN linker + C-term nucleoplasmin NLS
T1 chain: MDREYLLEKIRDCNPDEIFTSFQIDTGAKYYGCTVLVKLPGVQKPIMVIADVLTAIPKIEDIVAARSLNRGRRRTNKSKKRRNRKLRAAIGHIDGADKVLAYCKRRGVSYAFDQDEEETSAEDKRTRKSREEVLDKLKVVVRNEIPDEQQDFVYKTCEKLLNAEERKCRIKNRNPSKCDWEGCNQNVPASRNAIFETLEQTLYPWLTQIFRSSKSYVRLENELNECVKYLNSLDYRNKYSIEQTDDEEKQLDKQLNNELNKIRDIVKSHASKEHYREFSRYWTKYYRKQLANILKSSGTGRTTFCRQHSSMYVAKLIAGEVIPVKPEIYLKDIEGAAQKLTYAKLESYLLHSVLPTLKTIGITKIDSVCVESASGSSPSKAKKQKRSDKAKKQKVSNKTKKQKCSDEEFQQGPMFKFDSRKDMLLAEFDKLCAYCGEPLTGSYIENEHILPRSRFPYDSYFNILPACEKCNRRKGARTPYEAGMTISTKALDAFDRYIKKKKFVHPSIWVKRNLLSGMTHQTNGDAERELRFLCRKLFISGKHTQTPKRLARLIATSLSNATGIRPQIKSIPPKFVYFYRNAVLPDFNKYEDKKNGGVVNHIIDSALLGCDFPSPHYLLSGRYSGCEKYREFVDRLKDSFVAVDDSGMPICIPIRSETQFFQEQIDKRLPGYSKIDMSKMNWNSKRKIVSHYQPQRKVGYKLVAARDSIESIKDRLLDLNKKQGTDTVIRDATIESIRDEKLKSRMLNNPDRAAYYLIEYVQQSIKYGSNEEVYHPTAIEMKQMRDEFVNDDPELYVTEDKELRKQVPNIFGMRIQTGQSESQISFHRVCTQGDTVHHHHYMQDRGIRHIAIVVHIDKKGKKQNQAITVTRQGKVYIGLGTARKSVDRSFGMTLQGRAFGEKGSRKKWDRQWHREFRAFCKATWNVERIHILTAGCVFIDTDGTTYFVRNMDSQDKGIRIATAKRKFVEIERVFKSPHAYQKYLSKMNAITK
Experimental: (§1) HEK293T cells were transfected with plasmids expressing the Nuclease S polypeptides and the gRNAs provided herein following the methods provided in Example 1 above. Gene editing efficiencies were determined by NGS following the methods also provided in Example 1. The NGS results were analyzed also following the methods provided in Example 1 above.
Each Nuclease S variant was cloned as described in Example 6. HEK293T cells were further transfected with a plasmid encoding a Nuclease S variant and a plasmid encoding an RNA guide of Table 11, followed by NGS analysis, as described in Example 5. For each target, indel ratios, referring to the percentage of NGS reads comprising indels, were calculated for the reference Nuclease S (SEQ ID NO: 49) and for each Nuclease S variant. The indel ratios shown in Table 13 were calculated as the average of two bioreplicates, each of which contained two technical replicates.

[2] = target: T2, Nuclease H T783R/E43R/A170R (synthetic construct, T783R,E43R,A170R); assay: cell_activity; HEK293T; PAM AAC; details: tags: N-term SV40 NLS, XTEN linker + C-term nucleoplasmin NLS
T2 chain: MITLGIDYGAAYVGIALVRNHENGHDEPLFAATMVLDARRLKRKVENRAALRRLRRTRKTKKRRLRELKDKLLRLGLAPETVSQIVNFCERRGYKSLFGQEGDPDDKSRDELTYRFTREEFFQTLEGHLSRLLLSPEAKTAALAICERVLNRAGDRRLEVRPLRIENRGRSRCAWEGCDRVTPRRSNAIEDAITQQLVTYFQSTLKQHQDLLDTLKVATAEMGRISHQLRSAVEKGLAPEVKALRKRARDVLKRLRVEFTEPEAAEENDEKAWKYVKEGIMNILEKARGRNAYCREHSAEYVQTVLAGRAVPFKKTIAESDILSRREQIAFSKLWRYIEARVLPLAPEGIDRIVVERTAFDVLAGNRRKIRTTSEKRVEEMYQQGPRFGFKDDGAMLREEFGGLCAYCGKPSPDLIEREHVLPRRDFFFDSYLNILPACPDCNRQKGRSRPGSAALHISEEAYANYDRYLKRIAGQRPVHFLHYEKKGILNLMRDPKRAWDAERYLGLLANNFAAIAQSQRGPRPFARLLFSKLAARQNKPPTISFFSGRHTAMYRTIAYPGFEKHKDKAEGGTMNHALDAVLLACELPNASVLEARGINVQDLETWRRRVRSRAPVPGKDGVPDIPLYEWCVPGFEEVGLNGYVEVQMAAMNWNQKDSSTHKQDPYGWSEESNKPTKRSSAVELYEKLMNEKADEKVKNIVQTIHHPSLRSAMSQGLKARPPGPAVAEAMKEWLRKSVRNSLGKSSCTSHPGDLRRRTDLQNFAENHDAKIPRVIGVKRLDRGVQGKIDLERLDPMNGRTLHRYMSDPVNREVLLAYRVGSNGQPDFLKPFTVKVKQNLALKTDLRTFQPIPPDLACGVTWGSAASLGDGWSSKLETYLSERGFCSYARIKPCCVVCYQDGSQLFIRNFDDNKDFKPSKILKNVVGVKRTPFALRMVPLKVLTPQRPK
Experimental: as §1, with “Nuclease H” for “Nuclease S”
Each Nuclease H variant and RNA guide (see Table 16) was cloned as described in Example 9. HEK293T cells were further transfected, followed by NGS analysis, as described in Example 10. For each target, indel ratios, referring to the percentage of NGS reads comprising indels, were calculated for the reference Nuclease H (SEQ ID NO: 64) and for each Nuclease H variant. The indel ratios shown in Table 18 were calculated as the average of two bioreplicates, each of which contained two technical replicates.

B1: S AAVS1-T7 RNA guide ; AAVS1-T7 target (S) (ssRNA ; dsDNA)
RNA: GGCUAUAAUCCAUGCUGACCGUUGUAUUCGGAUGGGAGUAAAAGGUUGAGUACACCUGGAAACAAAACGACAUAAAGGUGUUCUCCCAUCUGUGUACAAAGAGCAGAUAUAUGAGUUGAUAAGUAAUAUGUUGCACGUAUGGACUUUGACAGUCUGUACCUCUGCGUGAAAGACAUAUUGCGUUAUUCAUAUAUCUGUGAGUCUGUUCUAAAUUUAAAGGUUUAGGGAA
DNA 1: GGCTATAATCCATGCTGACC
DNA 2: GGTCAGCATGGATTATAGCC
**Q.** With B1 as the binder, how does the activity [1] read?
**A.** 0.333 indel ratio

B2: H AAVS1-T5 RNA guide ; AAVS1-T5 target (H) (ssRNA ; dsDNA)
RNA: GGCUAUAAUCCAUGCUGACCGUUUCAAUCAACCUGAUCUCUCUGCUUGCGCUGCAGGCUUCAUAAGAUCAGUAGGUUGAAAAGAGCAUCCGUCCGACAUGCACUCCGGGAUGGGGCAGUCCCGGCUCUUGCGGUUCCCGAUGCAGUUAUGUGUCCGCGGAACACGGUGUCGGACACGUCGCAAGACAGGAUGUGAGCCCAUUAUCCACAUUAGGAUCAAUGUACGCAUGAGCAGUCCGCAAUGCCGGGGACGCU
DNA 1: GGCTATAATCCATGCTGACC
DNA 2: GGTCAGCATGGATTATAGCC
**Q.** B2 was tested. Which activity [2] did it give?
**A.** 0.184 indel ratio
